In US20030166868A1 (Genentech, published 2003):

T1: FcγRIIb α subunit ECD-6His-GST fusion protein (UniProt P31994 43-217)
T1 construct: Expressed in 293 cells; also called FcγRIlb; not shown: glutathione S transferase (GST)
T1 sequence: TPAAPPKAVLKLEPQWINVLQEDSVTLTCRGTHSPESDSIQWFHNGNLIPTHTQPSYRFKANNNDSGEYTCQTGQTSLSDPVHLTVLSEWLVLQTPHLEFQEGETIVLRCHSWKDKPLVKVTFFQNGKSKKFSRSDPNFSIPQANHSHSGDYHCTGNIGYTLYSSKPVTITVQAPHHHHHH

T2: FcγRIIa α subunit ECD-6His-GST fusion protein (UniProt P12318 34-217)
T2 construct: Expressed in 293 cells; not shown: glutathione S transferase (GST)
T2 sequence: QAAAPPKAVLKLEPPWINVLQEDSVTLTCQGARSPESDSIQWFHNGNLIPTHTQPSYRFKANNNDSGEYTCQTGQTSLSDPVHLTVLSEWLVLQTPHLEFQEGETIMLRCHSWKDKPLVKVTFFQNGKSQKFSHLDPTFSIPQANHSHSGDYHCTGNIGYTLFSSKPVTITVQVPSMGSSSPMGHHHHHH

B1: E27 anti-IgE antibody, wild type (humanized IgG1) (antibody)
heavy: not shown
light: DIQLTQSPSSLSASVGDRVTITCRASKPVDGEGDSYMNWYQQKPGKAPKLLIYAASYLESGVPSRFSGSGSGTDFTLTISSLQPEDFATYYCQQSHEDPYTFGQGTKVEIKRTVAAPSVFIFPPSDEQLKSGTASVVCLLNNFYPREAKVQWKVDNALQSGNSQESVTEQDSKDSTYSLSSTLTLSKADYEKHKVYACEVTHQGLSSPVTKSFNRGEC
notes: In the FcγRIIa, FcγRIIb and FcγRIIIa ELISAs it stood as an immune complex E27:chimeric IgE:VEGF (1:1:2); in the FcγRI ELISA as monomeric IgG; also called recombinant anti-IgE E27; wt
B2: E27 anti-IgE antibody mutant K322A (antibody)
heavy: not shown
light: B1 light
notes: also called K322A (E27 background)
B3: E27 anti-IgE antibody mutant P331A (antibody)
heavy: not shown
light: B1 light
notes: also called P331A (E27 background)
B4: E27 anti-IgE antibody mutant P329A (antibody)
heavy: not shown
light: B1 light
notes: also called P329A (E27 background)
B5: E27 anti-IgE antibody mutant K320A (antibody)
heavy: not shown
light: B1 light
notes: also called K320A (E27 background)
B6: E27 anti-IgE antibody mutant E318A (antibody)
heavy: not shown
light: B1 light
notes: also called E318A (E27 background)

biological target: T3, FcγRI α subunit-GST fusion (UniProt P12314 16-292); experiment: ELISA, monomeric IgG at 10 ug/ml on plate-coated FcγRI α subunit-GST fusion
T3 construct: ECD-6His-GST fusion expressed in 293 cells; not shown: glutathione S transferase (GST)
T3 sequence (P12314 other isoform, or with tags, fused parts or gaps, form in doubt): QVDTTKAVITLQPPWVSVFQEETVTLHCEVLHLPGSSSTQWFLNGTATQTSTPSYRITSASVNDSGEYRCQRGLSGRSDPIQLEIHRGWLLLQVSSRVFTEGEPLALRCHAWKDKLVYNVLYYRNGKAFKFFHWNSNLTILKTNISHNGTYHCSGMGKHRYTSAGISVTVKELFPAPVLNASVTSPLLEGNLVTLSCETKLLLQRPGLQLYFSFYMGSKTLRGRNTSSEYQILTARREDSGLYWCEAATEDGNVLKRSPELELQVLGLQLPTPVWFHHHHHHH

Row | binding as a percentage of the wild type | Binder
1 | 100 % of wild type | B1
2 | 90 % of wild type | B2
3 | 74 % of wild type | B3
4 | 104 % of wild type | B4
5 | 102 % of wild type | B5
6 | 93 % of wild type | B6

biological target: T1, FcγRIIb α subunit ECD-6His-GST fusion …; experiment: ELISA, E27:chimeric IgE:VEGF (1:1:2) immune complex on plate-coated receptor ECD-6His-GST

Row | binding as a percentage of the wild type | Binder
7 | 100 % of wild type | B1
8 | 101 % of wild type | B2
9 | 58 % of wild type | B3
10 | 96 % of wild type | B4
11 | 83 % of wild type | B5
12 | 106 % of wild type | B6

biological target: T4, FcγRIIIa α subunit ECD-6His-GST fusion protein (UniProt P08637 17-208); experiment: as above
T4 construct: Expressed in 293 cells; also called FcγIII; FcγIIIa; not shown: glutathione S transferase (GST)
T4 sequence (P08637 other isoform, or with tags, fused parts or gaps, form in doubt): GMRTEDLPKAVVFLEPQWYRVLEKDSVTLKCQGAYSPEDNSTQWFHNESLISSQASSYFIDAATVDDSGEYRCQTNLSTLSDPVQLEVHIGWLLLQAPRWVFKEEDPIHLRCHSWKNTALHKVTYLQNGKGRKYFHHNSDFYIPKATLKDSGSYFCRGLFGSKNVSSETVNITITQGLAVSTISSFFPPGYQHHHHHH

Row | binding as a percentage of the wild type | Binder
13 | 100 % of wild type | B1
14 | 90 % of wild type | B2
15 | 73 % of wild type | B3
16 | 85 % of wild type | B4
17 | 72 % of wild type | B5
18 | 104 % of wild type | B6

biological target: T2, FcγRIIa α subunit ECD-6His-GST fusion …; experiment: as above

Row | binding as a percentage of the wild type | Binder
19 | 100 % of wild type | B1
20 | 109 % of wild type | B2
21 | 86 % of wild type | B3
22 | 111 % of wild type | B4
23 | 94 % of wild type | B5
24 | 113 % of wild type | B6
